The RNAGym collection of RNA variant scans (doi:10.1073/pnas.2313332121)

B1: TPR t1 (parent)
chain: GACCAAUCUGCCCUCAGAGCUCGAGAACAUCUUCGGAUGCAGAGGAGGCAGGCUUCGGUGGCGCGAUAGCGCCAACGUCCUCAACCUCCAAUGCAUCCCACCACAUGAUGAUGCCUGAAGAGCCUUGGUUUUUUG

Variants of: B1
Test: polymerase ribozyme fitness, log enrichment relative to wild type (log ratio); higher = more active; in vitro selection for triplet polymerase activity
Summary of the method: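 A heterodimeric triplet polymerase ribozyme had each of its subunits mutagenized by PCR into a library, which was transcribed. One round of in vitro selection, done in triplicate, annealed each library with a biotinylated primer, its partner subunit and triplets, then incubated it frozen at −7 °C before gel excision of extended constructs, streptavidin-bead capture and RT-PCR. Fitness is the logarithm of genotype enrichment relative to wild-type enrichment, based on Illumina sequencing of inputs and outputs and inverse-variance-weighted replicate averages. A base-2 logarithm is used, and genotypes were kept only with ≥10 input reads and ≥1 read per output.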

Point of comparison: GACCAAUCUGCCCUCAGAGCUCGAGAACAUCUUCGGAUGCAGAGGAGGCAGGCUUCGGUGGCGCGAUAGCGCCAACGUCCUCAACCUCCAAUGCAUCCCACCACAUGAUGAUGCUUGAUGAGCCUUGGUGUUUUG [C115U A119U U130G], “polymerase ribozyme fitness (log ratio)” value -1.35. Against it:
- GACCAAUCUGCCCUCAGAGCUCGAGAACAUCUUCGGAUGCAGAGGAGGCAGGCUUCGGUGGCGCGAUAGCGCCAACGUCCUCAACCUCCAAUGCAUCCCACCACAUGAUGAUGCUUGAAACGCCUUGGUUUUUUG [C115U G120A A121C] — lower, -2.04
- GACCAAUCUGCCCUCAGAGCUCGAGAACAUCUUCGGAUGCAGAGGAGGCAGGCUUCGGUGGCGCGAUAGCGCCAACGUCCUCAACCUCCAAUGCAUCCCACCACAUGAUGAUGCAUGAAGAGCCUUGGCUUUUUG [C115A U129C] — lower, -2.62
- GACCAAUCUGCCCUCAGAGCUCGAGAACAUCUUCGGAUGCAGAGGAGGCAGGCUUCGGUGGCGCGAUAGCGCCAACGUCCUCAACCUCCAAUGCAUCCCACCACAUGAUGAUGCUUGAAGAGCCUUGGGUUUUUG [C115U U129G] — lower, -2.15
- GACCAAUCUGCCCUCAGAGCUCGAGAACAUCUUCGGAUGCAGAGGAGGCAGGCUUCGGUGGCGCGAUAGCGCCAACGUCCUCAACCUCCAAUGCAUCCCACCACAUGAUGAUGACUGAAGAGUCUUGGUUUUUUG [C114A C123U] — lower, -3.16
- GACCAAUCUGCCCUCAGAGCUCGAGAACAUCUUCGGAUGCAGAGGAGGCAGGCUUCGGUGGCGCGAUAGCGCCAACGUCCUCAACCUCCAAUGCAUCCCACCACAUGAUGAUUCCUGAAGAGCCUUGGUUUUUGG [G113U U134G] — lower, -1.78
- GACCAAUCUGCCCUCAGAGCUCGAGAACAUCUUCGGAUGCAGAGGAGGCAGGCUUCGGUGGCGCGAUAGCGCCAACGUCCUCAACCUCCAAUGCAUCCCACCACAUGAUGAUGCCCUAAGAGCCUUGGUUUUUUG [U116C G117U] — higher, -1.01
- GACCAAUCUGCCCUCAGAGCUCGAGAACAUCUUCGGAUGCAGAGGAGGCAGGCUUCGGUGGCGCGAUAGCGCCAACGUCCUCAACCUCCAAUGCAUCCCACCACAUGAUGAUGCAUGAAGAGCCUUGUUUUUAUG [C115A G128U U133A] — lower, -3.05
- GACCAAUCUGCCCUCAGAGCUCGAGAACAUCUUCGGAUGCAGAGGAGGCAGGCUUCGGUGGCGCGAUAGCGCCAACGUCCUCAACCUCCAAUGCAUCCCACCACAUGAUGAUGCAUGAAGAGCCUUGGUUUAUUG [C115A U132A] — higher, 0.0612
- GACCAAUCUGCCCUCAGAGCUCGAGAACAUCUUCGGAUGCAGAGGAGGCAGGCUUCGGUGGCGCGAUAGCGCCAACGUCCUCAACCUCCAAUGCAUCCCACCACAUGAUGAUGCGUGAAAAGCCUUGGUUUUUUG [C115G G120A] — the same, -1.35
- GACCAAUCUGCCCUCAGAGCUCGAGAACAUCUUCGGAUGCAGAGGAGGCAGGCUUCGGUGGCGCGAUAGCGCCAACGUCCUCAACCUCCAAUGCAUCCCACCACAUGAUGAUGCCGGAAGAGCAUUGGUUUUUUG [U116G C124A] — higher, 0.803
- GACCAAUCUGCCCUCAGAGCUCGAGAACAUCUUCGGAUGCAGAGGAGGCAGGCUUCGGUGGCGCGAUAGCGCCAACGUCCUCAACCUCCAAUGCAUCCCACCACAUGAUGAUGUCUGAAAAGUCUUGGUUUUUUG [C114U G120A C123U] — lower, -1.64
- GACCAAUCUGCCCUCAGAGCUCGAGAACAUCUUCGGAUGCAGAGGAGGCAGGCUUCGGUGGCGCGAUAGCGCCAACGUCCUCAACCUCCAAUGCAUCCCACCACAUGAUGAUGGCUGAAGAUCCUUGGUUUUUUG [C114G G122U] — lower, -2.87
- GACCAAUCUGCCCUCAGAGCUCGAGAACAUCUUCGGAUGCAGAGGAGGCAGGCUUCGGUGGCGCGAUAGCGCCAACGUCCUCAACCUCCAAUGCAUCCCACCACAUGAUGAUUCCUGACGAUCCUUGGUUUUUUG [G113U A119C G122U] — lower, -4.35
- GACCAAUCUGCCCUCAGAGCUCGAGAACAUCUUCGGAUGCAGAGGAGGCAGGCUUCGGUGGCGCGAUAGCGCCAACGUCCUCAACCUCCAAUGCAUCCCACCACAUGAUGAUGACUGAAGAGCAUUGGUUUUUUG [C114A C124A] — higher, -1.12
- GACCAAUCUGCCCUCAGAGCUCGAGAACAUCUUCGGAUGCAGAGGAGGCAGGCUUCGGUGGCGCGAUAGCGCCAACGUCCUCAACCUCCAAUGCAUCCCACCACAUGAUGAUGACUGAAGAGCCUUGGCUUUUUG [C114A U129C] — lower, -1.63
- GACCAAUCUGCCCUCAGAGCUCGAGAACAUCUUCGGAUGCAGAGGAGGCAGGCUUCGGUGGCGCGAUAGCGCCAACGUCCUCAACCUCCAAUGCAUCCCACCACAUGAUGAUGUCUGAAGAGCCUUGGUUUUAUG [C114U U133A] — lower, -1.63
- GACCAAUCUGCCCUCAGAGCUCGAGAACAUCUUCGGAUGCAGAGGAGGCAGGCUUCGGUGGCGCGAUAGCGCCAACGUCCUCAACCUCCAAUGCAUCCCACCACAUGAUGAUUCCUGUAGAGCCUUGGUUUUUUG [G113U A118U] — lower, -2.55
- GACCAAUCUGCCCUCAGAGCUCGAGAACAUCUUCGGAUGCAGAGGAGGCAGGCUUCGGUGGCGCGAUAGCGCCAACGUCCUCAACCUCCAAUGCAUCCCACCACAUGAUGAUGCCGGAAGAGCCAUGGUUUUAUG [U116G U125A U133A] — lower, -4.19
- GACCAAUCUGCCCUCAGAGCUCGAGAACAUCUUCGGAUGCAGAGGAGGCAGGCUUCGGUGGCGCGAUAGCGCCAACGUCCUCAACCUCCAAUGCAUCCCACCACAUGAUGAUGUCAGAAGAGCCUUGGUUUUUUG [C114U U116A] — lower, -5.58
- GACCAAUCUGCCCUCAGAGCUCGAGAACAUCUUCGGAUGCAGAGGAGGCAGGCUUCGGUGGCGCGAUAGCGCCAACGUCCUCAACCUCCAAUGCAUCCCACCACAUGAUGAUGACUGAAGAGCCUUGGUUAUUUG [C114A U131A] — higher, -0.246
- GACCAAUCUGCCCUCAGAGCUCGAGAACAUCUUCGGAUGCAGAGGAGGCAGGCUUCGGUGGCGCGAUAGCGCCAACGUCCUCAACCUCCAAUGCAUCCCACCACAUGAUGAUGCUUGAAAAGCCUUGGUUUUUUG [C115U G120A] — lower, -2.24
- GACCAAUCUGCCCUCAGAGCUCGAGAACAUCUUCGGAUGCAGAGGAGGCAGGCUUCGGUGGCGCGAUAGCGCCAACGUCCUCAACCUCCAAUGCAUCCCACCACAUGAUGAUGACUGAAGAGCCUUGGUUUUUUG [C114A] — within 0.2 log units, -1.39
- GACCAAUCUGCCCUCAGAGCUCGAGAACAUCUUCGGAUGCAGAGGAGGCAGGCUUCGGUGGCGCGAUAGCGCCAACGUCCUCAACCUCCAAUGCAUCCCACCACAUGAUGAUGUCUGAAGAGCCUUGGUUUUUUG [C114U] — lower, -1.7
- GACCAAUCUGCCCUCAGAGCUCGAGAACAUCUUCGGAUGCAGAGGAGGCAGGCUUCGGUGGCGCGAUAGCGCCAACGUCCUCAACCUCCAAUGCAUCCCACCACAUGAUGAUGGCUGAAGAGCCUUGGUUUUUUG [C114G] — lower, -2.37
- GACCAAUCUGCCCUCAGAGCUCGAGAACAUCUUCGGAUGCAGAGGAGGCAGGCUUCGGUGGCGCGAUAGCGCCAACGUCCUCAACCUCCAAUGCAUCCCACCACAUGAUGAUGACUGAAGAGCCUUGGGCUUUUG [C114A U129G U130C] — lower, -2.79
- GACCAAUCUGCCCUCAGAGCUCGAGAACAUCUUCGGAUGCAGAGGAGGCAGGCUUCGGUGGCGCGAUAGCGCCAACGUCCUCAACCUCCAAUGCAUCCCACCACAUGAUGAUGCAUGAAGAGCCUUGGAUCUUUG [C115A U129A U131C] — higher, -0.649
- GACCAAUCUGCCCUCAGAGCUCGAGAACAUCUUCGGAUGCAGAGGAGGCAGGCUUCGGUGGCGCGAUAGCGCCAACGUCCUCAACCUCCAAUGCAUCCCACCACAUGAUGAUGUCUGAAGAGCCAUGGUUUUUUG [C114U U125A] — lower, -3.07
- GACCAAUCUGCCCUCAGAGCUCGAGAACAUCUUCGGAUGCAGAGGAGGCAGGCUUCGGUGGCGCGAUAGCGCCAACGUCCUCAACCUCCAAUGCAUCCCACCACAUGAUGAUGCUUGUAGAGCCUUGGUGUUUUG [C115U A118U U130G] — lower, -1.69
- GACCAAUCUGCCCUCAGAGCUCGAGAACAUCUUCGGAUGCAGAGGAGGCAGGCUUCGGUGGCGCGAUAGCGCCAACGUCCUCAACCUCCAAUGCAUCCCACCACAUGAUGAUUCCUGAAGAUCCUUGGUUUUUUG [G113U G122U] — lower, -2.45
- GACCAAUCUGCCCUCAGAGCUCGAGAACAUCUUCGGAUGCAGAGGAGGCAGGCUUCGGUGGCGCGAUAGCGCCAACGUCCUCAACCUCCAAUGCAUCCCACCACAUGAUGAUGCCCGAAGAGCCUUGGUUUUAUG [U116C U133A] — higher, -0.508
- GACCAAUCUGCCCUCAGAGCUCGAGAACAUCUUCGGAUGCAGAGGAGGCAGGCUUCGGUGGCGCGAUAGCGCCAACGUCCUCAACCUCCAAUGCAUCCCACCACAUGAUGAUGACUGAAGAGCCAUGGUUUUUUG [C114A U125A] — lower, -1.73
- GACCAAUCUGCCCUCAGAGCUCGAGAACAUCUUCGGAUGCAGAGGAGGCAGGCUUCGGUGGCGCGAUAGCGCCAACGUCCUCAACCUCCAAUGCAUCCCACCACAUGAUGAUGCUUGAAGAGGCUUGGUUUUUUG [C115U C123G] — higher, -0.112
- GACCAAUCUGCCCUCAGAGCUCGAGAACAUCUUCGGAUGCAGAGGAGGCAGGCUUCGGUGGCGCGAUAGCGCCAACGUCCUCAACCUCCAAUGCAUCCCACCACAUGAUGAUGCCUAAAGAGCCUUGGUGUUUUG [G117A U130G] — lower, -1.63
- GACCAAUCUGCCCUCAGAGCUCGAGAACAUCUUCGGAUGCAGAGGAGGCAGGCUUCGGUGGCGCGAUAGCGCCAACGUCCUCAACCUCCAAUGCAUCCCACCACAUGAUGAUGGCUGAAGAGCCUUGGUUUUAUG [C114G U133A] — lower, -2.37
- GACCAAUCUGCCCUCAGAGCUCGAGAACAUCUUCGGAUGCAGAGGAGGCAGGCUUCGGUGGCGCGAUAGCGCCAACGUCCUCAACCUCCAAUGCAUCCCACCACAUGAUGAUGACUGAAGUGCCUUGGUUUUUUG [C114A A121U] — within 0.2 log units, -1.18
- GACCAAUCUGCCCUCAGAGCUCGAGAACAUCUUCGGAUGCAGAGGAGGCAGGCUUCGGUGGCGCGAUAGCGCCAACGUCCUCAACCUCCAAUGCAUCCCACCACAUGAUGAUGCUUGAAGAGCCUUGUUUUUUUG [C115U G128U] — lower, -4.06
- GACCAAUCUGCCCUCAGAGCUCGAGAACAUCUUCGGAUGCAGAGGAGGCAGGCUUCGGUGGCGCGAUAGCGCCAACGUCCUCAACCUCCAAUGCAUCCCACCACAUGAUGAUGCCCGAAGAGCCUUGGUUGUUUG [U116C U131G] — higher, -1.05
- GACCAAUCUGCCCUCAGAGCUCGAGAACAUCUUCGGAUGCAGAGGAGGCAGGCUUCGGUGGCGCGAUAGCGCCAACGUCCUCAACCUCCAAUGCAUCCCACCACAUGAUGAUGGUUGAAGAGCCUUGGUUUUUUG [C114G C115U] — lower, -4.37
- GACCAAUCUGCCCUCAGAGCUCGAGAACAUCUUCGGAUGCAGAGGAGGCAGGCUUCGGUGGCGCGAUAGCGCCAACGUCCUCAACCUCCAAUGCAUCCCACCACAUGAUGAUGCCGGAAGAGACUUGGUUUUUUG [U116G C123A] — lower, -3.25
- GACCAAUCUGCCCUCAGAGCUCGAGAACAUCUUCGGAUGCAGAGGAGGCAGGCUUCGGUGGCGCGAUAGCGCCAACGUCCUCAACCUCCAAUGCAUCCCACCACAUGAUGAUGCCAGAAGAGCAUUGGUUUUUUG [U116A C124A] — higher, 0.141
- GACCAAUCUGCCCUCAGAGCUCGAGAACAUCUUCGGAUGCAGAGGAGGCAGGCUUCGGUGGCGCGAUAGCGCCAACGUCCUCAACCUCCAAUGCAUCCCACCACAUGAUGAUGCCUCAUGAGCCUUGGUUUUUUG [G117C A119U] — lower, -2.92
